Substrate: C[C@@H](O)C(=O)O
Experiment: TP_TRANSPORTER: uptake in Xenopus laevis oocytes
Format: functional, cell-based
Conditions: Oocyte

B1: Monocarboxylate transporter 1 (Rattus norvegicus), P53987 (protein)
chain: MPPAIGGPVGYTPPDGGWGWAVVVGAFISIGFSYAFPKSITVFFKEIEIIFSATTSEVSWISSIMLAVMYAGGPISSILVNKYGSRPVMIAGGCLSGCGLIAASFCNTVQELYFCIGVIGGLGLAFNLNPALTMIGKYFYKKRPLANGLAMAGSPVFLSTLAPLNQAFFGIFGWRGSFLILGGLLLNCCVAGSLMRPIGPQQGKVEKLKSKESLQEAGKSDANTDLIGGSPKGEKLSVFQTVNKFLDLSLFTHRGFLLYLSGNVVMFFGLFTPLVFLSNYGKSKHFSSEKSAFLLSILAFVDMVARPSMGLAANTRWIRPRVQYFFAASVVANGVCHLLAPLSTTYVGFCIYAGVFGFAFGWLSSVLFETLMDLVGPQRFSSAVGLVTIVECCPVLLGPPLLGRLNDMYGDYKYTYWACGVILIIAGLYLFIGMGINYRLVAKEQKAEEKKRDGKEDETSTDVDEKPKKTMKETQSPAPLQNSSGDPAEEESPV
For B1, the Km was 5.6 mM.
